The source of these data is patent US20240239894A1, “THERAPEUTIC BINDING MOLECULES” (MedImmune Limited, priority 2020, published 2024).

The target of test [1] is human B7-H4 on cells (human) (UniProt Q7Z7D3). Kind of test: flow cytometry, AF647-labelled antibody at 78 ng/ml, SKBR-3 cells.
The target is the same in test [2]. Kind of test: flow cytometry, AF647-labelled antibody at 312 ng/ml, SKBR-3 cells. In general terms: A flow cytometer gives signals particle by particle.

Sequence of human B7-H4 on cells (human) (Q7Z7D3 25-282 limits assumed): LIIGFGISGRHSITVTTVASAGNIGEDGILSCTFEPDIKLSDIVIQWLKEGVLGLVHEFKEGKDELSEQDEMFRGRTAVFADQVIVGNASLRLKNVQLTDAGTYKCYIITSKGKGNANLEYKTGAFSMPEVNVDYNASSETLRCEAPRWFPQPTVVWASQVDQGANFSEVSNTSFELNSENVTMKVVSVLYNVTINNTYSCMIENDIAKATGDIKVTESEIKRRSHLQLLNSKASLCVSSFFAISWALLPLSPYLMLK

Regarding “R347-maia human IgG1 (isotype control) (antibody)”, the values for the Geometric Mean : Comp-APC-A in test [1] and in test [2] were 101 and 121, respectively.
